B1: SVT02L (VHH)
VHH: QVQLQQSGGGSVQAGGSLRLSCVGPQRTFSTYGMGWFRQAPGKEREFVAGINYKGDTTYYADSVKGRFTISRDNAKNTLYLQMDSLKPEDRAVYQCARKGGLGGDYRDAGQYRYWGQGTQVTVSS
B2: SVT03L (VHH)
VHH: QVQLQQSGGGSVQTGDSLTLSCTASGGSLNSYFVGWFRQSGGKEREFVSVIARTGRSTSYADSVKGRFTISRDNAANTVFLTMNNLRPDDTAIYYCAAVGRPGVLHLTQSYDYWGQGTQVTVSS

Columns and labels:
[1] = target: T1, tetanus neurotoxin (TeNT), authentic tetanus holotoxin (Clostridium tetani, UniProt P04958 2-1315); experiment: competition ELISA on TeNT, binder biotinylated; competitor SVT34L
Target sequence in this assay (P04958 2-457 limits assumed, chain 1 of 2): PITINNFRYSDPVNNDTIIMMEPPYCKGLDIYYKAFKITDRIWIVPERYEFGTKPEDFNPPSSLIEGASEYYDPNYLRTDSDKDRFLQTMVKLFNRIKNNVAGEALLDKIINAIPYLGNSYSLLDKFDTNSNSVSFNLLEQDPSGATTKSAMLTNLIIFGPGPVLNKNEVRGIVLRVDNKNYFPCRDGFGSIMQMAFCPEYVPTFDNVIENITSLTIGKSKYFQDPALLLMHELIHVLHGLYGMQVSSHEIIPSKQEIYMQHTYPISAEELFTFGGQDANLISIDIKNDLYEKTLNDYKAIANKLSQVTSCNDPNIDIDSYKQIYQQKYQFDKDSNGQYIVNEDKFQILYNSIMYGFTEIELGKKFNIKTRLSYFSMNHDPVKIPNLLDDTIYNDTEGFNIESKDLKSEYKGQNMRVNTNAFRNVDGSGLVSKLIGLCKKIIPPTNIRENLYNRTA
Target sequence in this assay (P04958 458-1315 limits assumed, chain 2 of 2): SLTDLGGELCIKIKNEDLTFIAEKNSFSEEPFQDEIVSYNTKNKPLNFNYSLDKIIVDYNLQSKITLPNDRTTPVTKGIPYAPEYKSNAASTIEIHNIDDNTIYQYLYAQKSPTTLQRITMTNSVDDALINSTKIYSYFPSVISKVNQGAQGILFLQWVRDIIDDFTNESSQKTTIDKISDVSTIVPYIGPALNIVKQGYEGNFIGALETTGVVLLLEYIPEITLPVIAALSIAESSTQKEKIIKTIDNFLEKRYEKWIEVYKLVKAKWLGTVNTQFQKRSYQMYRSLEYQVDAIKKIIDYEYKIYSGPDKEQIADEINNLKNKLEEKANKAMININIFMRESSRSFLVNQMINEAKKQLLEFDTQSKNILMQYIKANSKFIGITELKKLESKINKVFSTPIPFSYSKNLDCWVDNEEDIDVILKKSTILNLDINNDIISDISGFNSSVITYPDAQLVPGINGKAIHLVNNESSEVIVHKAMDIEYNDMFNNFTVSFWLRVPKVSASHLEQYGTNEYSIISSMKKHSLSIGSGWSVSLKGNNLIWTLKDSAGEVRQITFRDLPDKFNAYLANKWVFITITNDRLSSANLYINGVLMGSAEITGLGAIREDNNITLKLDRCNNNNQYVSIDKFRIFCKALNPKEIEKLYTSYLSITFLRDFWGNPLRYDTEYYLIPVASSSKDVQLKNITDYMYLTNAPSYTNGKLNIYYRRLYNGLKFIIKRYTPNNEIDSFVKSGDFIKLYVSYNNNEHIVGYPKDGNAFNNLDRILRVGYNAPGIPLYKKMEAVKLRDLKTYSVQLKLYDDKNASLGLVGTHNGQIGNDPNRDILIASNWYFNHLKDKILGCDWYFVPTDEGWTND

[2] = target: T1, tetanus neurotoxin (TeNT), authentic …; experiment: competition ELISA on TeNT, binder biotinylated; competitor mAb 14F5
Target sequence in this assay (P04958 2-457 limits assumed, chain 1 of 2): as the sequence (P04958 2-457 limits assumed, chain 1 of 2) above
Target sequence in this assay (P04958 458-1315 limits assumed, chain 2 of 2): as the sequence (P04958 458-1315 limits assumed, chain 2 of 2) above

[3] = target: T1, tetanus neurotoxin (TeNT), authentic …; experiment: competition ELISA on TeNT, binder biotinylated; competitor SVT22L
Target sequence in this assay (P04958 2-457 limits assumed, chain 1 of 2): as the sequence (P04958 2-457 limits assumed, chain 1 of 2) above
Target sequence in this assay (P04958 458-1315 limits assumed, chain 2 of 2): as the sequence (P04958 458-1315 limits assumed, chain 2 of 2) above

[4] = target: T1, tetanus neurotoxin (TeNT), authentic …; experiment: competition ELISA on TeNT, binder biotinylated; competitor SVT08L
Target sequence in this assay (P04958 2-457 limits assumed, chain 1 of 2): as the sequence (P04958 2-457 limits assumed, chain 1 of 2) above
Target sequence in this assay (P04958 458-1315 limits assumed, chain 2 of 2): as the sequence (P04958 458-1315 limits assumed, chain 2 of 2) above

[5] = target: T1, tetanus neurotoxin (TeNT), authentic …; experiment: ELISA, directly coated TeNT, unlabelled binder
[6] = target: T1, tetanus neurotoxin (TeNT), authentic …; experiment: competition ELISA on TeNT, binder biotinylated; competitor SVT15L-3FW4M
Target sequence in this assay (P04958 2-457 limits assumed, chain 1 of 2): as the sequence (P04958 2-457 limits assumed, chain 1 of 2) above
Target sequence in this assay (P04958 458-1315 limits assumed, chain 2 of 2): as the sequence (P04958 458-1315 limits assumed, chain 2 of 2) above

[7] = target: T1, tetanus neurotoxin (TeNT), authentic …; experiment: competition ELISA on TeNT, binder biotinylated; competitor SVT15L
Target sequence in this assay (P04958 2-457 limits assumed, chain 1 of 2): as the sequence (P04958 2-457 limits assumed, chain 1 of 2) above
Target sequence in this assay (P04958 458-1315 limits assumed, chain 2 of 2): as the sequence (P04958 458-1315 limits assumed, chain 2 of 2) above

[8] = target: T1, tetanus neurotoxin (TeNT), authentic …; experiment: competition ELISA on TeNT, binder biotinylated; competitor mAb 6F57
[9] = target: T1, tetanus neurotoxin (TeNT), authentic …; experiment: ELISA, TeNT captured with cAb-TT2, unlabelled binder
[10] = target: T1, tetanus neurotoxin (TeNT), authentic …; experiment: ELISA, directly coated TeNT, biotinylated binder
[11] = target: T1, tetanus neurotoxin (TeNT), authentic …; experiment: GT1b-TeNT inhibition ELISA, unlabelled binder
[12] = target: T2, recombinant tetanus toxin fragment C (rTTC) (Clostridium tetani, UniProt P04958 865-1315); experiment: ELISA, directly coated rTTC, unlabelled binder
T2 sequence: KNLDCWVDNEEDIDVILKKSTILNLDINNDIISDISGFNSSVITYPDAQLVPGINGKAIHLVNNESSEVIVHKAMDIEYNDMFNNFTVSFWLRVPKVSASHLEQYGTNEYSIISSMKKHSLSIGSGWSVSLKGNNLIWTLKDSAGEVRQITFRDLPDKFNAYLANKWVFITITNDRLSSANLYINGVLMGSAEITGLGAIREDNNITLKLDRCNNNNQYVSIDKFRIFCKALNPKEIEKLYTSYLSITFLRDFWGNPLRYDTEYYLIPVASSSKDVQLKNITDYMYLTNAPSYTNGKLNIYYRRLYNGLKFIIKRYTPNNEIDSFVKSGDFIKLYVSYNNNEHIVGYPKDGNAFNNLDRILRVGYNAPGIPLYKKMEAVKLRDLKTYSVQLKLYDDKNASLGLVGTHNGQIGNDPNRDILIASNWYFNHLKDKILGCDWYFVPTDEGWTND

[13] = target: T1, tetanus neurotoxin (TeNT), authentic …; experiment: competition ELISA on TeNT, binder biotinylated; competitor SVT13L
[14] = target: T2, recombinant tetanus toxin fragment C …; experiment: ELISA, rTTC captured with coated mAb 6E7
[15] = target: T2, recombinant tetanus toxin fragment C …; experiment: ELISA, directly coated rTTC
[16] = target: T1, tetanus neurotoxin (TeNT), authentic …; experiment: ELISA, TeNT captured with coated mAb 6E7
[17] = target: T1, tetanus neurotoxin (TeNT), authentic …; experiment: competition ELISA on TeNT, binder biotinylated; competitor mAb 6E7
[18] = target: T1, tetanus neurotoxin (TeNT), authentic …; experiment: ELISA, directly coated TeNT
[19] = target: T1, tetanus neurotoxin (TeNT), authentic …; experiment: ELISA, TeNT captured with cAb-TT2, biotinylated binder
[20] = target: T1, tetanus neurotoxin (TeNT), authentic …; experiment: competition ELISA on TeNT, binder biotinylated; competitor SVT02L
[21] = target: T1, tetanus neurotoxin (TeNT), authentic …; experiment: GT1b-TeNT inhibition ELISA, EC at A450 0.59
[22] = target: T1, tetanus neurotoxin (TeNT), authentic …; experiment: competition ELISA on TeNT, binder biotinylated; competitor mAb 11n185
[23] = target: T1, tetanus neurotoxin (TeNT), authentic …; experiment: competition ELISA on TeNT, binder biotinylated; competitor SVT16L
[24] = target: T1, tetanus neurotoxin (TeNT), authentic …; experiment: competition ELISA on TeNT, binder biotinylated; competitor SVT03L
[25] = target: T1, tetanus neurotoxin (TeNT), authentic …; experiment: competition ELISA on TeNT, binder biotinylated; competitor SVT06L

| Binder | % inhibition of binding [1] | % inhibition of binding [2] | % inhibition of binding [3] | % inhibition of binding [4] | EC resulting in A450 0.2 [5] | maximal absorbance at 450 nm [5] | % inhibition of binding [6] | % inhibition of binding [7] | % inhibition of binding [8] | EC resulting in A450 0.15 [9] | maximal absorbance at 450 nm [9] | EC resulting in A450 0.4 [10] | maximal absorbance at 450 nm [10] | minimal absorbance at 450 nm [11] | maximal absorbance at 450 nm [12] | % inhibition of binding [13] | absorbance at 450 nm [14] | binding result [15] | absorbance at 450 nm [16] | % inhibition of binding [17] | also measured |
| --- | --- | --- | --- | --- | --- | --- | --- | --- | --- | --- | --- | --- | --- | --- | --- | --- | --- | --- | --- | --- | --- |
| B1 | -16% | 97% | 3% | 16% | > 1000 ng/mL | 0.077 | 12% | 6% | 19% | 36 ng/mL | 0.196 | > 1000 ng/mL | 0.191 | 0.576 | 0.057 | 21% | 0.062 | no binding (tested: A450 above 0.2 counts as binding) | 1.19 | 8% | absorbance at 450 nm [18]: 0.062; EC resulting in A450 0.2 [19]: 11 ng/mL; maximal absorbance at 450 nm [19]: 0.53; % inhibition of binding [20]: 96%; concentration giving A450 of 0.59 [21]: > 1 µg/mL; % inhibition of binding [22]: 19%; % inhibition of binding [23]: 26%; % inhibition of binding [24]: 9%; % inhibition of binding [25]: 2% |
| B2 | -4% | -8% | 10% | 10% | > 1000 ng/mL | 0.104 | 10% | 12% | 17% | 1.9 ng/mL | 0.304 | > 1000 ng/mL | 0.233 | 0.903 | 0.053 | 23% | 0.061 | no binding (tested: A450 above 0.2 counts as binding) | 1.32 | -12% | absorbance at 450 nm [18]: 0.331; EC resulting in A450 0.2 [19]: 2.8 ng/mL; maximal absorbance at 450 nm [19]: 0.493; % inhibition of binding [20]: 10%; concentration giving A450 of 0.59 [21]: > 1 µg/mL; % inhibition of binding [22]: -26%; % inhibition of binding [23]: 18%; % inhibition of binding [24]: 97%; % inhibition of binding [25]: 10% |
